# Source: US20210087258A1 (UNIVERSITY OF TOKYO, published 2021)
# T1: P1-2 domain of VP1 of human norovirus (GII.4 strain) (human norovirus (GII.4 strain))
# T1 construct: also called VP1 P1-2 domain
# T1 chain: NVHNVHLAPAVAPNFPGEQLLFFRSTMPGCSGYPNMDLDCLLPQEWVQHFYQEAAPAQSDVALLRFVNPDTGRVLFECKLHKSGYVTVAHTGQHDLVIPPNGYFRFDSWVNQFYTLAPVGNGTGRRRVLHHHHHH
# B1: KVP-12B8 (VHH)
# VHH: EVQLVESGGGSVQSGGSLRLSCAASGYPFSDNAMGWYRQAPGNQRELVATITNSNSTKYADSVKGRFTISRDSAKNTIYLEMNSLKPEDTAIYYCRIERTGRTSIKWTYWGQGTQVTVSS
# notes: Llama VHH (nanoantibody) expressed in E. coli from pMEK222 (FLAG tag and His tag); also called IC VP-12B8; not shown: FLAG tag and His tag from vector pMEK222
# B2: KVP-7C6 (VHH)
# VHH: EVQLVESGGGLVQAGGSLRLSCAASGRTFGPNVMGWYRQAPGKQRELVASKTSGRLSNYADSVKGRFAISRDFAKNTLYLQMNNLRPDDTAVYYCRLWDSARSTEYWGQGTQVTVSS
# notes: Llama VHH (nanoantibody) expressed in E. coli from pMEK222 (FLAG tag and His tag); not shown: FLAG tag and His tag from vector pMEK222
# Target: T1, P1-2 domain of VP1 of human norovirus …
# Test: Western blot of denatured VP1 domains
row,Binder,binding result
1,B1,no binding (tested: 10 µg/ml)
2,B2,no binding (tested: 10 µg/ml)
